Source: paper PMC7096399, “The Na,K-ATPase acts upstream of phosphoinositide PI(4,5)P2 facilitating unconventional secretion of Fibroblast Growth Factor 2” (Communications Biology, 2020)

Molecular target: T1, ∆N25-FGF2, non-tagged form of FGF2 lacking 25 residues at the N-terminus (UniProt P09038-2 26-155)
T1 construct: FGF2, 18 kDa isoform (UniProtKB P09038-2), lacking 25 residues at the N-terminus; Untagged; also called untagged version of FGF2; source: E. coli, purified according to standard procedures
T1 sequence (P09038 159-288): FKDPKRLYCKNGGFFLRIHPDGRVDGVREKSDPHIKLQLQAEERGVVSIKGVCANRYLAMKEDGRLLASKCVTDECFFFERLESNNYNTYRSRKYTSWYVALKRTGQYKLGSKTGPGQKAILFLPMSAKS
Test: AlphaScreen or HTRF; competition: His-FGF2-wt (62 nM) and GST-α1 variant (15 nM) with ∆N25-FGF2 competitor from 22.5 µM to 1.4 nM; apparent IC50 taken as the apparent KD
Settings: both partners purified

B1: GST-α1-CD1-3, fusion of the three main loops of the cytoplasmic domain of the α1 subunit of the Na,K-ATPase (domain or fragment)
chain: not shown
Kd: 1100 nM
